In article PMC4564764, “Collagen Q and anti-MuSK autoantibody competitively suppress agrin/LRP4/MuSK signaling” (Scientific Reports, 2015):

Molecular target: T1, purified recombinant ectodomain of human MuSK fused to myc (hMuSKect-myc), wild type (human, UniProt O15146 24-495)
T1 construct: muscle-specific receptor tyrosine kinase (MuSK), human, ectodomain (Ig1, Ig2, Ig3, C6 box, Ig4); It holds the C6 box, since a ΔC6 form was made from it; also called Wt; source: HEK293, transfected with phMUSKect-myc; in lysate for co-IP; not shown: myc, C-terminal, kept
T1 sequence (looked up): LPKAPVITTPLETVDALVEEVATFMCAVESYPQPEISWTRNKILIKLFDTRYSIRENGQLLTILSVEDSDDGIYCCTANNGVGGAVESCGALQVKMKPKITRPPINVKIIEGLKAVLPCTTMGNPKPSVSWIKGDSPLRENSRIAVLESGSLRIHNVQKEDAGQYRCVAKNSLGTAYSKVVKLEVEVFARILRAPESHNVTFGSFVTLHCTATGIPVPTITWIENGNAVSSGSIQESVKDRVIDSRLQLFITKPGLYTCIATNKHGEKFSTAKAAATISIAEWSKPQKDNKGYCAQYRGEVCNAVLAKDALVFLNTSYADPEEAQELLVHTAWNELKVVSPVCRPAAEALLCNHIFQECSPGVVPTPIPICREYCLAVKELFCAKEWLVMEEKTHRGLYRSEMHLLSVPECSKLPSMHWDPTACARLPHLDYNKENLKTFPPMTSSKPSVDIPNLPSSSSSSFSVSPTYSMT
Experiment: ELISA; in vitro plate-binding assay: 0.15 ug hMuSKect-myc coated on a Maxi-Sorp plate, blocked with 1% BSA; 0.12 ug hLRP4N-FLAG overlaid with or without 0.24 ug rat neural agrin, room temperature 2 h; bound hLRP4N-FLAG read with anti-FLAG-HRP, normalised to that without agrin
Conditions: both partners purified

B1: N-terminal ectodomain of human LRP4 fused to FLAG (hLRP4N-FLAG) (domain or fragment, UniProt O75096 21-1725, looked up)
chain: SSPECACGRSHFTCAVSALGECTCIPAQWQCDGDNDCGDHSDEDGCILPTCSPLDFHCDNGKCIRRSWVCDGDNDCEDDSDEQDCPPRECEEDEFPCQNGYCIRSLWHCDGDNDCGDNSDEQCDMRKCSDKEFRCSDGSCIAEHWYCDGDTDCKDGSDEENCPSAVPAPPCNLEEFQCAYGRCILDIYHCDGDDDCGDWSDESDCSSHQPCRSGEFMCDSGLCINAGWRCDGDADCDDQSDERNCTTSMCTAEQFRCHSGRCVRLSWRCDGEDDCADNSDEENCENTGSPQCALDQFLCWNGRCIGQRKLCNGVNDCGDNSDESPQQNCRPRTGEENCNVNNGGCAQKCQMVRGAVQCTCHTGYRLTEDGHTCQDVNECAEEGYCSQGCTNSEGAFQCWCETGYELRPDRRSCKALGPEPVLLFANRIDIRQVLPHRSEYTLLLNNLENAIALDFHHRRELVFWSDVTLDRILRANLNGSNVEEVVSTGLESPGGLAVDWVHDKLYWTDSGTSRIEVANLDGAHRKVLLWQNLEKPRAIALHPMEGTIYWTDWGNTPRIEASSMDGSGRRIIADTHLFWPNGLTIDYAGRRMYWVDAKHHVIERANLDGSHRKAVISQGLPHPFAITVFEDSLYWTDWHTKSINSANKFTGKNQEIIRNKLHFPMDIHTLHPQRQPAGKNRCGDNNGGCTHLCLPSGQNYTCACPTGFRKISSHACAQSLDKFLLFARRMDIRRISFDTEDLSDDVIPLADVRSAVALDWDSRDDHVYWTDVSTDTISRAKWDGTGQEVVVDTSLESPAGLAIDWVTNKLYWTDAGTDRIEVANTDGSMRTVLIWENLDRPRDIVVEPMGGYMYWTDWGASPKIERAGMDASGRQVIISSNLTWPNGLAIDYGSQRLYWADAGMKTIEFAGLDGSKRKVLIGSQLPHPFGLTLYGERIYWTDWQTKSIQSADRLTGLDRETLQENLENLMDIHVFHRRRPPVSTPCAMENGGCSHLCLRSPNPSGFSCTCPTGINLLSDGKTCSPGMNSFLIFARRIDIRMVSLDIPYFADVVVPINITMKNTIAIGVDPQEGKVYWSDSTLHRISRANLDGSQHEDIITTGLQTTDGLAVDAIGRKVYWTDTGTNRIEVGNLDGSMRKVLVWQNLDSPRAIVLYHEMGFMYWTDWGENAKLERSGMDGSDRAVLINNNLGWPNGLTVDKASSQLLWADAHTERIEAADLNGANRHTLVSPVQHPYGLTLLDSYIYWTDWQTRSIHRADKGTGSNVILVRSNLPGLMDMQAVDRAQPLGFNKCGSRNGGCSHLCLPRPSGFSCACPTGIQLKGDGKTCDPSPETYLLFSSRGSIRRISLDTSDHTDVHVPVPELNNVISLDYDSVDGKVYYTDVFLDVIRRADLNGSNMETVIGRGLKTTDGLAVDWVARNLYWTDTGRNTIEASRLDGSCRKVLINNSLDEPRAIAVFPRKGYLFWTDWGHIAKIERANLDGSERKVLINTDLGWPNGLTLDYDTRRIYWVDAHLDRIESADLNGKLRQVLVSHVSHPFALTQQDRWIYWTDWQTKSIQRVDKYSGRNKETVLANVEGLMDIIVVSPQRQTGTNACGVNNGGCTHLCFARASDFVCACPDEPDSRPCSLVPGLVPPAPRATGMSEKSPVLPNTPPTTLYSSTTRTRTSLEEVEGRCSERDARLGLCARSNDAVPAAPGEGLHIS
notes: low-density lipoprotein receptor-related protein 4 (LRP4), human, printed as 'the N-terminal ectodomain of human LRP4'; also called hLRP4-FLAG; source: HEK293, transfected with phLRP4N-FLAG; in lysate for co-IP; not shown: FLAG, C-terminal, kept
fold increase of bound hLRP4N-FLAG with agrin over without agrin: 36 fold
